The target of this assay is T1, RALGAPB (human, UniProt Q86X10 1-1494, limits assumed).
T1 sequence (looked up): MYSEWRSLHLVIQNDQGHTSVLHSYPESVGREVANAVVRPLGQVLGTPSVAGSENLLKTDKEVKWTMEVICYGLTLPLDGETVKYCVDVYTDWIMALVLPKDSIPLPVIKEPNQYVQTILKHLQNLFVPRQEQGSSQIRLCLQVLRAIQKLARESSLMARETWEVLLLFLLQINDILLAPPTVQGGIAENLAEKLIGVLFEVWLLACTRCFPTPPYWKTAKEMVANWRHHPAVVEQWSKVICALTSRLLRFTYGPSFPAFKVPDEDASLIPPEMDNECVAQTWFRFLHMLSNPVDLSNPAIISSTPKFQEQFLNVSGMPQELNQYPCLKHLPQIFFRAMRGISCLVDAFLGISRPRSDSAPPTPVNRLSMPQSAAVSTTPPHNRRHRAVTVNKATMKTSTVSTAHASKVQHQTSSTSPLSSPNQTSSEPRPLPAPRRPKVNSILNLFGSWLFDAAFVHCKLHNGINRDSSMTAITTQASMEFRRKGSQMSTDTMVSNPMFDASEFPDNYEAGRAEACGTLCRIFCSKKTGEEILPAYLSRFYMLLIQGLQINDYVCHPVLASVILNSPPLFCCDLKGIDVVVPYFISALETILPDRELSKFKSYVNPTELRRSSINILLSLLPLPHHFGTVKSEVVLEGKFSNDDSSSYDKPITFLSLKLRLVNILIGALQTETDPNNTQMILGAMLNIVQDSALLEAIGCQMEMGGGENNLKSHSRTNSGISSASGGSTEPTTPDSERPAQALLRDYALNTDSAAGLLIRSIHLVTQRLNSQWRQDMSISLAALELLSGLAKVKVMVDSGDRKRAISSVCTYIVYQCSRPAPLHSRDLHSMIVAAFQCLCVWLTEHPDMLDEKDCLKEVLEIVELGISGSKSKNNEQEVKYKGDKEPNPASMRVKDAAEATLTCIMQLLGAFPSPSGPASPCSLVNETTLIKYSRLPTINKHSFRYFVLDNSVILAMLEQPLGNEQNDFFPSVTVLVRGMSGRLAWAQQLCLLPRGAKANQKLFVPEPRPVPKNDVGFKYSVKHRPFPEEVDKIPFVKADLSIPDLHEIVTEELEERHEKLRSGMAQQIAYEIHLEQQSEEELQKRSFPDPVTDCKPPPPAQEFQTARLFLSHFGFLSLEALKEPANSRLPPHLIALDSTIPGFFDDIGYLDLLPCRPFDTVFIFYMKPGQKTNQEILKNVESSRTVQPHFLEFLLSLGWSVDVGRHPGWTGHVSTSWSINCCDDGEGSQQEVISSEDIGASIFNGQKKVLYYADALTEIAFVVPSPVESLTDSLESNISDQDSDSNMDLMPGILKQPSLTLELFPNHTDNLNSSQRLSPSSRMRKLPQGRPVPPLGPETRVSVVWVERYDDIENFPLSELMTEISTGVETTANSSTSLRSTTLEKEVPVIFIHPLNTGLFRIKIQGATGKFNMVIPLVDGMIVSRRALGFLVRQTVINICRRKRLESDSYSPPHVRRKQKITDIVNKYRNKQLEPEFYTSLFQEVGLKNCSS
Description: IP/MS, LZTR1 R810W-FLAG, U87. An outline of the steps:
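Gel slices were reduced with 5 mM DTT, alkylated with 11 mM IAA and digested overnight at 37° C. with trypsin. Peptides were analysed on an Orbitrap Fusion Tribrid by LC-MS/MS.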

B1: LZTR1 R810W-FLAG (other, human, UniProt Q8N653 1-840, looked up)
chain: MAGPGSTGGQIGAAALAGGARSKVAPSVDFDHSCSDSVEYLTLNFGPFETVHRWRRLPPCDEFVGARRSKHTVVAYKDAIYVFGGDNGKTMLNDLLRFDVKDCSWCRAFTTGTPPAPRYHHSAVVYGSSMFVFGGYTGDIYSNSNLKNKNDLFEYKFATGQWTEWKIEGRLPVARSAHGATVYSDKLWIFAGYDGNARLNDMWTIGLQDRELTCWEEVAQSGEIPPSCCNFPVAVCRDKMFVFSGQSGAKITNNLFQFEFKDKTWTRIPTEHLLRGSPPPPQRRYGHTMVAFDRHLYVFGGAADNTLPNELHCYDVDFQTWEVVQPSSDSEVGGAEVPERACASEEVPTLTYEERVGFKKSRDVFGLDFGTTSAKQPTQPASELPSGRLFHAAAVISDAMYIFGGTVDNNIRSGEMYRFQFSCYPKCTLHEDYGRLWESRQFCDVEFVLGEKEECVQGHVAIVTARSRWLRRKITQARERLAQKLEQEAAPVPREAPGVAAGGARPPLLHVAIREAEARPFEVLMQFLYTDKIKYPRKGHVEDVLLIMDVYKLALSFQLCRLEQLCRQYIEASVDLQNVLVVCESAARLQLSQLKEHCLNFVVKESHFNQVIMMKEFERLSSPLIVEIVRRKQQPPPRTPLDQPVDIGTSLIQDMKAYLEGAGAEFCDITLLLDGHPRPAHKAILAARSSYFEAMFRSFMPEDGQVNISIGEMVPSRQAFESMLRYIYYGEVNMPPEDSLYLFAAPYYYGFYNNRLQAYCKQNLEMNVTVQNVLQILEAADKTQALDMKRHCLHIIVHQFTKVSKLPTLWSLSQQLLLDIIDSLASHISDKQCAELGADI
notes: Stably expressed in U87 cells by lentivirus; also called LZTR1-FLAG-R810W; LZTR1 RW; not shown: FLAG tag
Regarding B1, the binding result was “binds”.
